Test [1] relates to B16-F1 melanomas. In words: B16-F1 melanoma model, adoptive T cell therapy with anti-platelet agents. The format is in vivo, C57BL/6 mice. Conditions: no adoptive T cells; Cy on day 7. The source says:
To establish the clinical relevance of the suppressive effect of platelets on anti-tumor immunity, the impact of platelets on immunotherapy was addressed pharmacologically. B16-F1 melanomas were established in C57BL/6 mice after subcutaneous injection on day 0, followed by lymphodepletion with Cy on day 7, and infusion of ex vivo primed Pmel cells on day 8, along with anti-platelet (AP) agents: aspirin and clopidogrel. Aspirin and clopidogrel inhibit platelet activation by blocking cycloxyenase and ADP receptors, respectively.
B16-F1 tumor model and adoptive T cell therapy (ACT). […] (B16 EV, and B16 GARP-Fc; n=5-7 each group) of 6-8-week old female C57BL/6J mice were inoculated s.q. in the right flank using 2.5×10^5 cells and, when specified, treated with one intra-peritoneal injection of CY (4 mg/mouse) a day prior to adoptive T cell therapy. […] Primary tumor growth was monitored 3 times per week with vernier calipers. Peripheral adoptively transferred Pmel cells were monitored at 2, 3, 4, and 5 weeks after ACT. Ex-vivo Pmel IFN-γ production was assess stimulating Pmel cells for 3 h in presence of hgp100 and brefeldin A (BFA) at 37° C. and analyzed by flow cytometry.

Test [2] concerns the target T1, mouse GARP (Mus musculus, UniProt G3XA59).
T1 sequence (G3XA59 18-663): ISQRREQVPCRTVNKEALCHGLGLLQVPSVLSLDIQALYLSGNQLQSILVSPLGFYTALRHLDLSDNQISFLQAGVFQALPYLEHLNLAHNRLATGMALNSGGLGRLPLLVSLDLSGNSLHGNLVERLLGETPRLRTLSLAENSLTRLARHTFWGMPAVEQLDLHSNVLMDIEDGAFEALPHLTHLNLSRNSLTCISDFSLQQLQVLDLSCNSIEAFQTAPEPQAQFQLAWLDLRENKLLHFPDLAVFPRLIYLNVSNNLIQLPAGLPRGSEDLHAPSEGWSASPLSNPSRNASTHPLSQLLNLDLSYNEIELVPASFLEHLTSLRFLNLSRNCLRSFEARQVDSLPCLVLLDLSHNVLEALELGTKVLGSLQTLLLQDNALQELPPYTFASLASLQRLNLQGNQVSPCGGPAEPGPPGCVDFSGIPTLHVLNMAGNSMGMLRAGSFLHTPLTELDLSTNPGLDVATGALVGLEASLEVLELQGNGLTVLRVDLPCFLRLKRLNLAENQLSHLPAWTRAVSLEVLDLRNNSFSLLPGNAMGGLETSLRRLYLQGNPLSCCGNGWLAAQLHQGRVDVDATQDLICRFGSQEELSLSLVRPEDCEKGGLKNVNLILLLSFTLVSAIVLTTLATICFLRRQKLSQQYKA
Description: Cross-reactivity of anti-GARP mAb clones against mouse GARP. The format is binding.

The subject of test [3] is human GARP-expressing 4T1 tumor cells. In words: 4T1-huGARP orthotopic mammary tumor model, GARP antibody therapy. The format is in vivo, BALB/c mice. To be noted: for primary tumor growth: antibody 0.1 mg/mouse i.p. three times per week, with or without a single dose of CY, vs isotype control. As for the experimental part:
4T1 Tumor model and GARP antibody therapy. Female BALB/c mice, 6-8-week old were inoculated in the fourth mammary fat pad subcutaneously (s.q.) with 5×10^5 cells (4T1 EV, 4T1 GARP, or 4T1 GARP-Fc). Tumor growth was monitored three times per week with a digital vernier caliper and tumor volume was calculated using the following formula: tumor volume (mm^3)=[(width)^2×length][…]. In GARP antibody therapy experiments, beginning at 3 days post-tumor inoculation, anti-GARP antibody or polyclonal isotype-controlled antibody (0.1 mg/mouse in 0.1 mL PBS; three times per week) were administered intraperitoneally (i.p.) into mice. […] At end-point, mice were sacrificed and the primary tumor, draining LNs, spleen, lungs and liver were isolated. Tumor infiltrated lymphocytes were isolated by Collagenase D (Sigma) digestion followed by Histopaque-1083 (Sigma) mediated density separation.

The target of test [4] is T2, binding of exogenous human LTGFβ-1 (huLTGFβ-1) to surface GARP (Homo sapiens, UniProt Q14392).
T2 construct: expressed in transfected cells; host or cells: murine Pre-B leukemia line 70Z/3 stably transduced with human GARP (MigR1 retroviral vector)
T2 sequence (Q14392 20-662): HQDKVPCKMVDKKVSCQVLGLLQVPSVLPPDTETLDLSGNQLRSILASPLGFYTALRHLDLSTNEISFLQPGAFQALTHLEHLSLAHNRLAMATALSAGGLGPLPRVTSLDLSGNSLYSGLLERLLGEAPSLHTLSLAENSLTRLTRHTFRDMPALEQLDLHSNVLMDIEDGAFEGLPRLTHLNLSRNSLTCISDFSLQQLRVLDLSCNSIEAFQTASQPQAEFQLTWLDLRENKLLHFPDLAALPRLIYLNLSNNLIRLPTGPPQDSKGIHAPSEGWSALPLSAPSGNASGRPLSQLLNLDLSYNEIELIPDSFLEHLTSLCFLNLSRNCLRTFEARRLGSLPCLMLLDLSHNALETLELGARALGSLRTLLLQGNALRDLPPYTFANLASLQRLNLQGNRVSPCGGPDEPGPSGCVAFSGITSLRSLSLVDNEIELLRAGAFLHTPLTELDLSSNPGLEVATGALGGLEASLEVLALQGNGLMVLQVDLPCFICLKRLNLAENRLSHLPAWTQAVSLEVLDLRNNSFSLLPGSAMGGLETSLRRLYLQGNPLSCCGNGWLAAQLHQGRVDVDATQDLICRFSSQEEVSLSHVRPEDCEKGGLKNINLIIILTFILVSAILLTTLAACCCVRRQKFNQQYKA
Description: Blocking of exogenous huLTGF-β binding to surface GARP on Pre-B-hGARP cells. The format is cell-based. To be noted: staining for cell surface huLTGF-β. As to the method:
FIGS. 7A-7E. GARP-specific antibodies block binding of exogenous LTGF-β to GARP and have therapeutic values against a preclinical model of breast cancer. (7A) Surface staining of Pre-B cells stably expressing human GARP (Pre-B-hGARP) by various GARP antibodies. Grey histogram represents staining with isotype control antibody. (7B) Pre-B-hGARP cells were incubated without or with human LTGF-β (huLTGF-β), in the presence of various GARP antibodies or Isotype control antibody, followed by staining for cell surface huLTGF-β. (7C) BALB/c mice were injected with 4T1-huGARP mammary tumors orthotopically, followed by indicated treatment regimen. Data shown are the comparisons of primary tumor weight isolated at 35 days (left panel, combined treatment group) or 30 days (right panel, antibody treatment alone) after inoculation. (7D) Impact of anti-GARP antibody treatment alone (left panel) or in combination with CY on the number of metastatic tumor nodules in the lungs. (7E) Percentage of splenic Tregs and MDSCs in the spleen of mice treated with isotype control antibody or anti-GARP antibody (4D3). Two sample t-tests were used to compare group differences in all panels. *P<0.05. ***P<0.001.

The subject of test [5] is NMuMG cells. Description: NMuMG cells stimulated with soluble GARP-Fc (morphology, vimentin Western blot). The format is cell-based, murine. As for the experimental part:
Protein extraction, immunoprecipitation, and Western blot analysis. Cells were harvested by trypsin-EDTA when necessary, washed in PBS, and lysed on ice in radio-immunoprecipitation assay (RIPA) lysis buffer in the presence of a protease inhibitor cocktail (Sigma-Aldrich). Nuclear-free protein lysate was quantified by Bradford assay (Bio-Rad), and an equal amount of lysate was analysed by SDS-PAGE and Western blot under reducing conditions using anti-mouse GARP (AF6229; R&D system), anti-mouse Vimentin (D21H3; Cell signaling), anti-mouse E-Cadherin (24E10; Cell Signaling) and anti-mouse p-Smad-2/3 (EP823Y; Abcam).
Cell proliferation and in vitro wound healing assay. NMuMG cells (4×10^5) were starved overnight in serum free DMEM (Corning cellgro). Starved cells were cultured at the indicated times with GARP-Fc in 2% FBS DMEM. […] Proliferation was determined with 3-[4,5 dimethylthiazol-2-yl]-2,5-diphenyltetrazolium bromide (MTT), which was added to the cells at the indicated times and incubated for an additional 3 h at 37° C. […] Absorbance at 570 nm was then measured using a plate reader. The cell migration was measured by the wound-healing assay: at 100% confluence, two parallel wounds were made using a 1 ml pipette tip. Migration was assessed after 24, 48 and 72 hours and quantification of wound closure was measured using the ImageJ software (NIH).
A general note: Immunoblotting shows a protein as a band on a membrane.

For test [6], the system named is active TGF-β1. In words: Active TGF-β ELISA of purified recombinant GARP-Fc. The format is binding. To be noted: GARP-Fc purified from CHO conditioned medium. As for the experimental part:
Purification of GARP-Fc. For purification of GARP-Fc protein GARP-Fc, MigR1 vector was transfected into Chinese hamster ovary (CHO) cells using Lipofectamine 2000 (Invitrogen) according to the manufacturer's instructions. Stably transfected clones were selected by blasticidin (5 μg/ml) and protein expression was quantified by SDS-PAGE and Western blot under reducing conditions using anti-mouse GARP and anti-mouse Fc antibody. Recombinant GARP-Fc was purified from cell culture supernatants by protein A affinity chromatography (GE Health).
TGF-β1, GARP, and GARP-TGF-β1 analysis. Active TGF-β1, total TGF-β1, and soluble GARP were measured in human and mouse serum using TGF-β1 and GARP ELISA kits (BioLegend, San Diego, Calif.) according to the manufacturer's protocols. To measure GARP-TGF-β1 complex by ELISA, 96-well plates were coated with TGF-β1 capture antibody according to the manufacturer's instructions (BioLegend, San Diego, Calif.). Samples were incubated for 2 h at room temperature followed by the incubation with the anti-hGARP detection antibody developed in our lab for another 2 h.
On the technique in general: ELISA stands for enzyme-linked immunosorbent assay.

The mark [7] stands for this setting: spleen, vs isotype control antibody.

In the case of `O=P1(N(CCCl)CCCl)NCCCO1` (stereo not shown) [Cy, cyclophosphamide], the “tumor control without T cell transfer” value in test [1] is listed as “failed to control tumors”.

B1: 4D3: anti-GARP monoclonal antibody (IgG1); VH SEQ ID NO: 4, VL SEQ ID NO: 8 (antibody, listed as Homo sapiens, V domains shown)
VH: LDVQLQESGPGLVKPSQSLSLTCTVTGYSITSDYAWNWIRQFPGNKLEWMGYISYSGSTSYTPSLKSRISITRDTSKNHFFLQSNSVTTEDTATYYCAKSGGDYYGSSSYWYFDVWGAGTTVTVSS
VL: DIQMTQSPSSLSVSAGEKVTMSCKSSQSLLNSRSQKNYLAWYQQKPGQPPKLLIYRASTRGSGVPDRFTGSGSGTDFTLTISSVQAEDLAVYYCQNDHSYPFTFGSGTKLEIK
Consider B1, for which the “cross-reactivity against mouse GARP” value in test [2] is on record as “low level of cross-reactivity”. The primary tumor growth result in test [3] is “modestly inhibited”. Also, in test [3] (setting [7]), the “splenic Gr1+CD11b+ myeloid-derived suppressor cells (MDSCs)” value was “significant reduction” and the “splenic Tregs” value was “significant reduction”. In test [4], the “block of binding of exogenous human LTGFβ-1 to surface GARP” value was “only clone able to block”.

B2: 5C5: second anti-GARP mAb (IgG2a); VH SEQ ID NO: 12, VL SEQ ID NO: 16 (antibody, listed as Homo sapiens, V domains shown)
VH: EVKLVESGGGSVKPGGSLKLSCAASGFTFSNYVMSWVRQTPEKRLEWVATISSGGSYTYYPDSVKGRLTISRDNAKNTLYLQMSSLRSEDTAMYYCARGYDNGDYVMDYWGQGTSVTVSS
VL: DIVLTQSPASLAVSLGQRATISCRASESVDTYGNSFMHWYQQIPGQPPKVLIYRASNLESGIPARFSGSGSRTDFTLTINPVEAGDVATYYCQQTNEHPPTFGGGTKLEIK
Regarding B2, in test [3], the primary tumor growth result is listed as “modestly inhibited”.

B3: GARP-Fc: fusion protein consisting of the N-terminal extracellular domain of GARP linked to an Fc domain of IgG (protein)
chain: ISQRREQVPCRTVNKEALCHGLGLLQVPSVLSLDIQALYLSGNQLQSILVSPLGFYTALRHLDLSDNQISFLQAGVFQALPYLEHLNLAHNRLATGMALNSGGLGRLPLLVSLDLSGNSLHGNLVERLLGETPRLRTLSLAENSLTRLARHTFWGMPAVEQLDLHSNVLMDIEDGAFEALPHLTHLNLSRNSLTCISDFSLQQLQVLDLSCNSIEAFQTAPEPQAQFQLAWLDLRENKLLHFPDLAVFPRLIYLNVSNNLIQLPAGLPRGSEDLHAPSEGWSASPLSNPSRNASTHPLSQLLNLDLSYNEIELVPASFLEHLTSLRFLNLSRNCLRSFEARQVDSLPCLVLLDLSHNVLEALELGTKVLGSLQTLLLQDNALQELPPYTFASLASLQRLNLQGNQVSPCGGPAEPGPPGCVDFSGIPTLHVLNMAGNSMGMLRAGSFLHTPLTELDLSTNPGLDVATGALVGLEASLEVLELQGNGLTVLRVDLPCFLRLKRLNLAENQLSHLPAWTRAVSLEVLDLRNNSFSLLPGNAMGGLETSLRRLYLQGNPLSCCGNGWLAAQLHQGRVDVDATQDLICRFGSQEELSLSLVRPEDCEKGGLKNVN
modifications: left off: a dimerising Fc or GST
notes: fusion protein consisting of the N-terminal extracellular domain of GARP linked to an Fc domain of IgG
On to B3, for which the vimentin expression entry in test [5] (Western blot, indicated times and increasing doses) was “time- and dose-dependent upregulation”. Also, the cell morphology change result in test [5] (serum-free medium, within 24 hours) is given as “spindle-shaped morphology”. The “association between GARP-Fc and active TGF-β1” value in test [6] is listed as “direct association”.

The record behind these values is patent US11046782B2, “Methods for treatment and diagnosis of cancer by targeting glycoprotein A repetitions predominant (GARP) and for providing effective immunotherapy alone or in combination” (MUSC FOUNDATION FOR RESEARCH DEVELOPMENT, priority 2016, dated 2021).
